We go through 125 sequences from the supplement of paper PMC9112550, “Optimization of the antimicrobial peptide Bac7 by deep mutational scanning” (BMC Biology, 2022).
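Note: peptides expressed intracellularly from a pBAD plasmid library in pooled LB shake-flask culture, induced with 0.3% L-arabinose, DNA abundance read by NGS, three biological replicates, DESeq2 with apeglm shrinkage.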

The series deals with Escherichia coli TOP10. Nature of the series: shrunken log2 fold change of peptide-encoding DNA abundance (4.5 h post-induction vs induction); higher = less antimicrobial activity (less host growth inhibition). Particulars: time post-induction: 4.5 h; library: site-saturation at positions 5, 18, 19, 20.
Take RRIRKRPPRLPRPRPRPHSVPRP: the “shrunken log2 fold change” value stood at 0.11.

As to RRIRARPPRLPRPRPRPFREPRP, the “shrunken log2 fold change” value is -0.14.

For RRIRFRPPRLPRPRPRPIEPPRP, the “shrunken log2 fold change” value is 0.242.

On to RRIRGRPPRLPRPRPRPPWPPRP, for which the “shrunken log2 fold change” value was determined as 0.871.

Turning to RRIRPRPPRLPRPRPRPTQQPRP, the “shrunken log2 fold change” value is 0.827.

As for RRIRRRPPRLPRPRPRPNRCPRP, the “shrunken log2 fold change” value amounted to 0.118.

RRIRHRPPRLPRPRPRPVTGPRP: the “shrunken log2 fold change” value was -0.213.

For the sequence RRIRHRPPRLPRPRPRPHLSPRP, the “shrunken log2 fold change” value is -0.43.

On to RRIRPRPPRLPRPRPRPLTIPRP, for which the “shrunken log2 fold change” value was -0.275.

In the case of RRIRVRPPRLPRPRPRPNMRPRP, the “shrunken log2 fold change” value was -0.124.

Consider RRIRARPPRLPRPRPRPDIHPRP, for which the “shrunken log2 fold change” value worked out at 0.145.

For RRIRCRPPRLPRPRPRPKPLPRP, the “shrunken log2 fold change” value came out at 0.12.

On to RRIRRRPPRLPRPRPRPVMAPRP, for which the “shrunken log2 fold change” value is 0.281.

For RRIRCRPPRLPRPRPRPMLRPRP, the “shrunken log2 fold change” value came out at 0.184.

Take RRIRRRPPRLPRPRPRPVIIPRP: the “shrunken log2 fold change” value is -0.106.

Turning to RRIRYRPPRLPRPRPRPHKLPRP, the “shrunken log2 fold change” value is -0.188.

Turning to RRIRRRPPRLPRPRPRPMMSPRP, the “shrunken log2 fold change” value was found to be 0.0352.

As for RRIRWRPPRLPRPRPRPWTHPRP, the “shrunken log2 fold change” value is -0.11.

As for RRIRCRPPRLPRPRPRPWFTPRP, the “shrunken log2 fold change” value is -0.879.

With RRIRHRPPRLPRPRPRPWRLPRP, the “shrunken log2 fold change” value is -0.0125.

On to RRIRMRPPRLPRPRPRPKLNPRP, for which the “shrunken log2 fold change” value came out at 0.851.

For the sequence RRIRERPPRLPRPRPRPDGMPRP, the “shrunken log2 fold change” value is -0.0237.

RRIRRRPPRLPRPRPRPHTKPRP: the “shrunken log2 fold change” value was determined as 0.179.

RRIRDRPPRLPRPRPRPSHFPRP: the “shrunken log2 fold change” value was -0.0338.

For RRIRSRPPRLPRPRPRPDRAPRP, the “shrunken log2 fold change” value is 0.611.

Turning to RRIRYRPPRLPRPRPRPLKQPRP, the “shrunken log2 fold change” value was -0.0485.

On to RRIRVRPPRLPRPRPRPASRPRP, for which the “shrunken log2 fold change” value was found to be 0.275.

As for RRIRYRPPRLPRPRPRPLTVPRP, the “shrunken log2 fold change” value was -0.146.

As for RRIRLRPPRLPRPRPRPWYSPRP, the “shrunken log2 fold change” value is -0.103.

As to RRIRHRPPRLPRPRPRPDILPRP, the “shrunken log2 fold change” value is -0.0904.

With RRIRARPPRLPRPRPRPMMYPRP, the “shrunken log2 fold change” value is -0.134.

For the sequence RRIRHRPPRLPRPRPRPNEPPRP, the “shrunken log2 fold change” value is -0.00438.

On to RRIRIRPPRLPRPRPRPEYTPRP, for which the “shrunken log2 fold change” value came to 0.0624.

As to RRIRCRPPRLPRPRPRPSLEPRP, the “shrunken log2 fold change” value was -0.136.

As for RRIRNRPPRLPRPRPRPYMFPRP, the “shrunken log2 fold change” value is -0.216.

Regarding RRIRYRPPRLPRPRPRPYPYPRP, the “shrunken log2 fold change” value was -0.0257.

Turning to RRIRNRPPRLPRPRPRPPVQPRP, the “shrunken log2 fold change” value is 0.0479.

RRIRDRPPRLPRPRPRPIIQPRP: the “shrunken log2 fold change” value was -0.0678.

For the sequence RRIRMRPPRLPRPRPRPYIMPRP, the “shrunken log2 fold change” value was -0.12.

With RRIRERPPRLPRPRPRPNYDPRP, the “shrunken log2 fold change” value was -0.873.

As to RRIRNRPPRLPRPRPRPNEFPRP, the “shrunken log2 fold change” value is -0.692.

As to RRIRIRPPRLPRPRPRPDVAPRP, the “shrunken log2 fold change” value was -0.206.

Turning to RRIRQRPPRLPRPRPRPINNPRP, the “shrunken log2 fold change” value was -0.803.

With RRIRFRPPRLPRPRPRPMYWPRP, the “shrunken log2 fold change” value is 0.146.

For the sequence RRIRQRPPRLPRPRPRPAEGPRP, the “shrunken log2 fold change” value stood at 0.045.

On to RRIRLRPPRLPRPRPRPDPIPRP, for which the “shrunken log2 fold change” value is 0.0451.

RRIRGRPPRLPRPRPRPNHMPRP: the “shrunken log2 fold change” value is -0.0194.

RRIRGRPPRLPRPRPRPVDQPRP: the “shrunken log2 fold change” value was found to be 0.126.

In the case of RRIRLRPPRLPRPRPRPKSWPRP, the “shrunken log2 fold change” value was found to be 0.176.

As for RRIRERPPRLPRPRPRPHCYPRP, the “shrunken log2 fold change” value was -0.291.

On to RRIRHRPPRLPRPRPRPTSRPRP, for which the “shrunken log2 fold change” value was 0.0698.

Consider RRIRIRPPRLPRPRPRPWSWPRP, for which the “shrunken log2 fold change” value is -0.0152.

RRIRMRPPRLPRPRPRPVAFPRP: the “shrunken log2 fold change” value was 0.579.

For RRIRQRPPRLPRPRPRPHPPPRP, the “shrunken log2 fold change” value was determined as 0.667.

In the case of RRIRIRPPRLPRPRPRPGLKPRP, the “shrunken log2 fold change” value was found to be 0.0429.

RRIRYRPPRLPRPRPRPTMFPRP: the “shrunken log2 fold change” value was -0.234.

Take RRIRTRPPRLPRPRPRPTLKPRP: the “shrunken log2 fold change” value was 0.00476.

For RRIRGRPPRLPRPRPRPQKEPRP, the “shrunken log2 fold change” value is 0.0631.

Consider RRIRCRPPRLPRPRPRPLWVPRP, for which the “shrunken log2 fold change” value was -0.1.

Take RRIRFRPPRLPRPRPRPHPGPRP: the “shrunken log2 fold change” value is -0.137.

RRIRGRPPRLPRPRPRPCFSPRP: the “shrunken log2 fold change” value is 0.0442.

As to RRIRKRPPRLPRPRPRPECFPRP, the “shrunken log2 fold change” value stood at 0.7.

Regarding RRIRDRPPRLPRPRPRPMGEPRP, the “shrunken log2 fold change” value is -6.53e-05.

Consider RRIRDRPPRLPRPRPRPYMYPRP, for which the “shrunken log2 fold change” value was -0.194.

For the sequence RRIRHRPPRLPRPRPRPDVTPRP, the “shrunken log2 fold change” value is -0.0437.

Take RRIRERPPRLPRPRPRPRHFPRP: the “shrunken log2 fold change” value was -0.419.

Regarding RRIRSRPPRLPRPRPRPNLKPRP, the “shrunken log2 fold change” value is 0.087.

RRIRLRPPRLPRPRPRPYLFPRP: the “shrunken log2 fold change” value was -0.602.

On to RRIRWRPPRLPRPRPRPYYRPRP, for which the “shrunken log2 fold change” value is -0.0707.

Turning to RRIRARPPRLPRPRPRPDNFPRP, the “shrunken log2 fold change” value is -0.294.

In the case of RRIRARPPRLPRPRPRPALPPRP, the “shrunken log2 fold change” value worked out at 0.309.

Take RRIRVRPPRLPRPRPRPFPKPRP: the “shrunken log2 fold change” value is -0.0266.

As for RRIRARPPRLPRPRPRPDFYPRP, the “shrunken log2 fold change” value stood at 0.0576.

Consider RRIRDRPPRLPRPRPRPWLPPRP, for which the “shrunken log2 fold change” value came out at 0.0708.

On to RRIRKRPPRLPRPRPRPKVDPRP, for which the “shrunken log2 fold change” value was found to be 0.00437.

For the sequence RRIRHRPPRLPRPRPRPLCKPRP, the “shrunken log2 fold change” value is 0.0111.

Regarding RRIRGRPPRLPRPRPRPVQGPRP, the “shrunken log2 fold change” value is 0.301.

For the sequence RRIRARPPRLPRPRPRPGFRPRP, the “shrunken log2 fold change” value turned out to be 0.555.

Take RRIRTRPPRLPRPRPRPEVIPRP: the “shrunken log2 fold change” value was -0.0149.

Take RRIRKRPPRLPRPRPRPSMNPRP: the “shrunken log2 fold change” value was -0.00473.

With RRIRERPPRLPRPRPRPLSIPRP, the “shrunken log2 fold change” value is -0.367.

Consider RRIRMRPPRLPRPRPRPMAFPRP, for which the “shrunken log2 fold change” value stood at 0.102.

For the sequence RRIRTRPPRLPRPRPRPVHYPRP, the “shrunken log2 fold change” value is 0.0226.

For the sequence RRIRLRPPRLPRPRPRPHTKPRP, the “shrunken log2 fold change” value is -0.422.

As for RRIRPRPPRLPRPRPRPKYKPRP, the “shrunken log2 fold change” value is -0.39.

Regarding RRIRARPPRLPRPRPRPTDFPRP, the “shrunken log2 fold change” value was -0.000766.

With RRIRLRPPRLPRPRPRPGSTPRP, the “shrunken log2 fold change” value is -0.381.

With RRIRNRPPRLPRPRPRPFCGPRP, the “shrunken log2 fold change” value is -0.108.

As to RRIRSRPPRLPRPRPRPKLQPRP, the “shrunken log2 fold change” value stood at 0.117.

For the sequence RRIRPRPPRLPRPRPRPQYPPRP, the “shrunken log2 fold change” value is -0.133.

In the case of RRIRFRPPRLPRPRPRPAWFPRP, the “shrunken log2 fold change” value is 0.122.

In the case of RRIRDRPPRLPRPRPRPWHIPRP, the “shrunken log2 fold change” value was -0.058.

With RRIRQRPPRLPRPRPRPYVAPRP, the “shrunken log2 fold change” value is -0.713.

On to RRIRPRPPRLPRPRPRPEYQPRP, for which the “shrunken log2 fold change” value amounted to 0.288.

For the sequence RRIRKRPPRLPRPRPRPHNIPRP, the “shrunken log2 fold change” value is -0.1.

In the case of RRIRHRPPRLPRPRPRPMYYPRP, the “shrunken log2 fold change” value was -0.681.

For RRIRKRPPRLPRPRPRPNAFPRP, the “shrunken log2 fold change” value is 0.0186.

Regarding RRIRLRPPRLPRPRPRPTQLPRP, the “shrunken log2 fold change” value turned out to be 0.221.

Take RRIRFRPPRLPRPRPRPLHDPRP: the “shrunken log2 fold change” value was -0.107.

For RRIRQRPPRLPRPRPRPQNWPRP, the “shrunken log2 fold change” value amounted to 0.0213.

Regarding RRIRKRPPRLPRPRPRPGFQPRP, the “shrunken log2 fold change” value came to 0.138.

Consider RRIRIRPPRLPRPRPRPVWCPRP, for which the “shrunken log2 fold change” value was 0.148.

In the case of RRIRCRPPRLPRPRPRPSTDPRP, the “shrunken log2 fold change” value was -0.348.

Take RRIRFRPPRLPRPRPRPHENPRP: the “shrunken log2 fold change” value was found to be 0.0161.

On to RRIRDRPPRLPRPRPRPKPRPRP, for which the “shrunken log2 fold change” value amounted to 0.711.

For RRIRHRPPRLPRPRPRPKIQPRP, the “shrunken log2 fold change” value was -0.484.

Regarding RRIRRRPPRLPRPRPRPLNGPRP, the “shrunken log2 fold change” value is 0.112.

Consider RRIRIRPPRLPRPRPRPDDIPRP, for which the “shrunken log2 fold change” value is -0.151.

With RRIRLRPPRLPRPRPRPMAVPRP, the “shrunken log2 fold change” value is -0.0225.

Consider RRIRMRPPRLPRPRPRPVKIPRP, for which the “shrunken log2 fold change” value was 0.514.

On to RRIRHRPPRLPRPRPRPIWWPRP, for which the “shrunken log2 fold change” value was determined as 0.0995.

In the case of RRIRIRPPRLPRPRPRPNQMPRP, the “shrunken log2 fold change” value was -0.173.

As to RRIRFRPPRLPRPRPRPYECPRP, the “shrunken log2 fold change” value was -0.0179.

Turning to RRIRKRPPRLPRPRPRPRIFPRP, the “shrunken log2 fold change” value was -0.0494.

In the case of RRIRQRPPRLPRPRPRPKVMPRP, the “shrunken log2 fold change” value was -0.0261.

Consider RRIRARPPRLPRPRPRPMDNPRP, for which the “shrunken log2 fold change” value was -0.114.

On to RRIRWRPPRLPRPRPRPGWHPRP, for which the “shrunken log2 fold change” value was 0.298.

For the sequence RRIRWRPPRLPRPRPRPIRMPRP, the “shrunken log2 fold change” value is 0.098.

Consider RRIRNRPPRLPRPRPRPAGDPRP, for which the “shrunken log2 fold change” value worked out at 0.395.

In the case of RRIRGRPPRLPRPRPRPDLWPRP, the “shrunken log2 fold change” value was 1.79.

In the case of RRIRKRPPRLPRPRPRPMGAPRP, the “shrunken log2 fold change” value was determined as 0.414.

Regarding RRIRFRPPRLPRPRPRPEFMPRP, the “shrunken log2 fold change” value is -0.109.

With RRIRARPPRLPRPRPRPRLGPRP, the “shrunken log2 fold change” value came to 0.606.

With RRIRYRPPRLPRPRPRPVPIPRP, the “shrunken log2 fold change” value was -0.297.

RRIRQRPPRLPRPRPRPEHWPRP: the “shrunken log2 fold change” value was 0.0788.
